± gives the uncertainty stated by the source.
Test: protein stability index of a GFP-peptide fusion (yeast GPS) (PSI 1-4); higher = more stable; sorted into four equal gates, so the index is relative within each strain
How it was run: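 Each library plasmid carries Cherry plus GFP with a tiled 17-residue yeast protein peptide fused downstream, and the pooled library was carried in yeast. Mid-log cultures in leucine-free medium were sorted into four equal gates by GFP/Cherry ratio. Reads from Illumina sequencing of PCR-amplified plasmids from each gate were assigned to strains by barcodes. Per peptide, the protein stability index was computed as the summed products of gate read frequency and gate number.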

Sequence	protein stability index (doa10∆)	protein stability index (pdr5∆)	protein stability index (san1∆)	protein stability index (ubr1∆)
KSFTNDKIPLNYAMTRN [SRB5]	2.8 ± 0.13	2.55 ± 0.1	2.45 ± 0.06	2.67 ± 0.069
RSWTLTSEMKVLSIPPA [YGL100W/SEH1]	2.13 ± 0.054	2.18 ± 0.069	2.37 ± 0.064	2.1 ± 0.072
KRKPAKSSSNRSCVSNS [RPN4]	2.89 ± 0.059	3.01 ± 0.077	3.08 ± 0.065	2.98 ± 0.048
ETALEFLEKEKQLTLLR [SMC4]	3.46 ± 0.1	2.65 ± 0.074	2.66 ± 0.12	2.92 ± 0.058
AAQAQAQAQAQAQAQAQ [GAL11]	2.69 ± 0.045	2.9 ± 0.043	2.65 ± 0.04	2.95 ± 0.068
QQQQQFRHHVQIQQQQQ [SNF5]	1.3 ± 0.033	1.76 ± 0.036	1.45 ± 0.086	1.32 ± 0.025
KKPSPQTIPIQIYGFEG [YGR119C/NUP57]	2.61 ± 0.26	3.06 ± 0.22	2.49 ± 0.15	3.08 ± 0.17
KFKDMGIRAPKGALMYG [RPT5]	3.01 ± 0.13	3.46 ± 0.19	3.17 ± 0.21	3.4 ± 0.18
NIKTIAETLAEELINAA [RPS5]	2.29 ± 0.067	2.87 ± 0.073	2.85 ± 0.057	2.46 ± 0.048
LDKIYTRPISSQVLDLA [SMC2]	1.53 ± 0.079	2.01 ± 0.08	1.25 ± 0.15	1.27 ± 0.054
EDEGEELTDEYLAENPD [PRP8]	3.43 ± 0.12	3.39 ± 0.13	3.33 ± 0.12	3.34 ± 0.092
TQNSRHYMVHEALNLLK [LIN1]	3.03 ± 0.086	2.98 ± 0.075	2.76 ± 0.077	3.07 ± 0.064
IVPSMTHLEIEPFTILG [RET1]	1.49 ± 0.037	2.05 ± 0.055	2.29 ± 0.1	2.27 ± 0.035
VDSRNETDHKTNENGET [SRB4]	3.26 ± 0.16	2.75 ± 0.18	2.77 ± 0.098	3.27 ± 0.19
KNKYLKDVLAQTSVTTN [SWP82]	2.5 ± 0.065	2.5 ± 0.06	2.71 ± 0.098	2.37 ± 0.044
ISNYNTKYTDDMATGSN [SRB8]	3.04 ± 0.1	2.52 ± 0.11	3.21 ± 0.058	2.94 ± 0.085
QFSQLNDPNAAVNMTQN [MED6]	2.71 ± 0.089	2.91 ± 0.1	2.86 ± 0.039	2.62 ± 0.06
FLNSNAVVVGTGNIKHE [COR1]	1.18 ± 0.085	1.36 ± 0.15	1.06 ± 0.22	1.24 ± 0.12
LVIGIFKRDLLREKEDK [YJL039C/NUP192]	2.95 ± 0.098	2.28 ± 0.11	2.86 ± 0.069	2.34 ± 0.1
TWYVGNSRGKFDDACNQ [SSN2]	3.43 ± 0.19	3.14 ± 0.12	2.9 ± 0.11	3.26 ± 0.16
SPDSTVNRSVVVSAVGE [YAR002W/NUP60]	3.11 ± 0.084	2.91 ± 0.088	3.28 ± 0.063	2.79 ± 0.061
SMKMELLKKELLTIEPK [SMC2]	2.85 ± 0.081	2.69 ± 0.064	2.8 ± 0.07	2.61 ± 0.053
DIIVAIKIFELKLPADA [IRR1]	1.54 ± 0.078	1.21 ± 0.071	1.59 ± 0.14	1.83 ± 0.052
SQTNNSFLSGVKSLLSE [SIR4]	2.98 ± 0.069	3.26 ± 0.067	3.14 ± 0.046	3.1 ± 0.056
KEDADLKRMEILKSPHL [SIR4]	2.88 ± 0.053	2.95 ± 0.077	2.99 ± 0.053	3.08 ± 0.057
DRKDQDDRDHFGKKRLD [RPB2]	3.27 ± 0.14	3.04 ± 0.12	3.28 ± 0.13	3.39 ± 0.086

Sequence	protein stability index (doa10∆)	protein stability index (pdr5∆)	protein stability index (san1∆)	protein stability index (ubr1∆)
LFAREIAKSQDKKSCSV [DPB4]	3.33 ± 0.064	3.24 ± 0.073	3.14 ± 0.067	3.22 ± 0.04
RRIIQNAQQTFHIDHTK [RPO21]	2.81 ± 0.061	2.89 ± 0.061	3 ± 0.062	2.89 ± 0.066
QFVSKLVDNLNAEVVAG [BRR2]	2.25 ± 0.042	2.25 ± 0.049	2.22 ± 0.05	2.19 ± 0.041
RARVTKDLVEIKKEEGK [RPN5]	–	3.42 ± 0.18	3.33 ± 0.17	3.59 ± 0.077
KLFVSKEHAPYTDELEE [FAS2]	–	1.61 ± 0.12	1.56 ± 0.28	1.83 ± 0.15
RAEALNISGEFFRNKLK [RPL16B]	–	2.4 ± 0.25	–	2.9 ± 0.13
QLAQIRQFLKANKTNLI [YML103C/NUP188]	2.65 ± 0.057	2.81 ± 0.068	2.86 ± 0.049	2.93 ± 0.04
TNLGQPHSLATKTTGKC [RPS2]	2.44 ± 0.13	2.69 ± 0.13	2.38 ± 0.088	2.5 ± 0.11
DDDDYNAEKYFNNGDDD [RPC31]	3.01 ± 0.12	3.13 ± 0.16	3.06 ± 0.082	3.19 ± 0.07
HARARGPRAVLTRQPTE [RET1]	3.28 ± 0.11	3.31 ± 0.068	3.08 ± 0.065	3.26 ± 0.06
SQLKKSKAQQKTAEQVA [RPL7A]	2.7 ± 0.071	2.79 ± 0.087	2.58 ± 0.1	2.94 ± 0.052
ITKFALFAESHDVLQKL [YML103C/NUP188]	2.34 ± 0.1	1.78 ± 0.2	2.02 ± 0.13	2.45 ± 0.075
IVEINNVSNTFNKTTNI [YJL041W/NSP1]	2.87 ± 0.048	2.9 ± 0.05	2.71 ± 0.046	2.86 ± 0.038
QRARDQDSIDISIKDNK [GAL11]	3.25 ± 0.1	3.12 ± 0.12	3.31 ± 0.086	3.13 ± 0.086
QAQAQAQAQAQAQAQAQ [GAL11]	2.84 ± 0.032	3.1 ± 0.034	3.101 ± 0.024	3.04 ± 0.033
VKKPTFTFGQSTSENKI [YOR098C/NUP1]	3.02 ± 0.21	2.87 ± 0.21	3.14 ± 0.2	3.45 ± 0.14
WKEVLAHNPELERYVKR [RPO31]	3.6 ± 0.11	3.85 ± 0.25	3.38 ± 0.1	3.45 ± 0.099
TQVALNESEKDQWLEEY [UBP6]	3 ± 0.1	2.55 ± 0.07	2.66 ± 0.077	2.88 ± 0.055
KNDNGGKMNNEVSTSTS [SWI3]	3.29 ± 0.08	3.14 ± 0.1	3.06 ± 0.053	2.65 ± 0.075
DKNELQQMIITRLKSLL [SIR3]	2.23 ± 0.058	2.04 ± 0.05	2.12 ± 0.063	2.08 ± 0.037
ASKGRTKIDMPIKNRKN [BRN1]	3.21 ± 0.11	3.13 ± 0.088	2.91 ± 0.12	3.17 ± 0.1
LDDPVLNAIVSKNSPAE [YJR042W/NUP85]	2.9 ± 0.16	1.92 ± 0.1	–	2.01 ± 0.078
SVNPAMLPGSSNGGGKV [RPO31]	2.98 ± 0.071	3.36 ± 0.12	3.07 ± 0.08	3.08 ± 0.06
REMALCRELHNKHLTTL [SSN3]	1.62 ± 0.037	2.04 ± 0.041	1.87 ± 0.056	1.8 ± 0.038
SGNEMPPQDAEGWFYKR [RPS19A]	3.21 ± 0.13	3.29 ± 0.24	3.25 ± 0.13	3.17 ± 0.12
MKYLAAYLLLNAAGNTP [RPP2A]	1.88 ± 0.031	2.05 ± 0.033	1.9 ± 0.05	2.32 ± 0.036

From the supplement of paper PMC9732359
